The assay has as its target integrin β1 (receptor subunit on the seeded cells, blocked with anti-β1 monoclonal antibody) (hamster (baby hamster kidney cells)). Put plainly: cell-based or functional assay.

Regarding “TMV-RGD1 (Tobacco mosaic virus particle whose coat protein carries the insert GRGDSPG extended after T159) (from UniProt P69687 2-159)”, the cell attachment on virus coated plate after blocking the cells with integrin specific monoclonal antibody (% drop in attachment) was 25.

The record behind these values is patent US20140287507A1.
